The text below walks through data of patent US11434299 (TENEOBIO, dated 2022).

This assay deals with T1, human BCMA (B-Cell Maturation Antigen) on NCI-H929 cells (human, UniProt Q02223 1-184).
T1 construct: whole, on cells; Endogenous BCMA on NCI-H929 myeloma cells; also called TNFRSF17; H929 cells (BCMA+, lambda-)
T1 sequence (looked up): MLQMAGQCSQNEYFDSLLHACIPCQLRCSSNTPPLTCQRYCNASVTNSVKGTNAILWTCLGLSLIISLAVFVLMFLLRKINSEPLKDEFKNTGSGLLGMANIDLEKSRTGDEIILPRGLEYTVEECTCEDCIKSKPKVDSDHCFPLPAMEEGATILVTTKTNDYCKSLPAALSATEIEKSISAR
Briefly: flow cytometry, HEK supernatants on NCI-H929 cells (BCMA+). How it is done:
Supernatants of all antibodies were also tested by flow cytometry for binding to RPMI-8226 cells (BCMA+, lambda+) and H929 cells (BCMA+, lambda−). The samples were measured by flow cytometry using a Guava easyCyte 8HT instrument from EMD Millipore and analyzed using guavaSoft. Bound antibodies were detected with goat anti-human IgG F(ab')_2 conjugated to PE (Southern Biotech 2042-09). All antibodies were diluted in PBS with 1% BSA. Positive staining was determined by comparison to staining with a human IgG1 isotype control. The NCI-H929 and RPMI-8226 cell lines are human multiple myeloma lines expressing human BCMA, which were obtained from the American Type Culture Collection (ATCC) and cultured according to ATCC recommendations.
For orientation: A flow cytometer gives signals particle by particle.

B1: SEQ ID NO 29 (antibody, V domains shown)
VH: EVQLLESGGGLVQPGGSLRLSCAASGFTFSSYAMNWVRQAPGKGLEWVSGIIGSGGSTYYADSVKGRFTISRDNSKNTLYLQMNSLRAEDTAVYYCVKDWNTTMITERGQGTLVTVSS
notes: UniAb: CH1 deleted, no light chain; HEK supernatant
In the case of B1, the binding result is on record as “binds”.

B2: SEQ ID NO 48 (antibody, V domains shown)
VH: EVQLLESGGGLVQPGGSLRLSCAASGFTFSNYAMTWIRQAPGKGLEWVSGITGDGGSTFYADSVKGRFTISRDNSKNTLYLQMNSLRAEDTAVYYCVKDWNTTMITERGQGTLVTVSS
notes: as for B1
In the case of B2, the binding result is listed as “binds”.

B3: SEQ ID NO 46 (antibody, V domains shown)
VH: EVQLLESGGGLVQPGGSLRLSCAASGFTFSSYAMSWVRQAPGKGLEWVSGIIGSGGSTFYADSVKGRFTISRDNSKNTLYLQMNSLRAEDTAVYYCVKDWNTTMITERGQGTLVTVSS
notes: as for B1
In the case of B3, the binding result is reported as “binds”.

B4: SEQ ID NO 49 (antibody, V domains shown)
VH: EVQLLESGGGLVQPGGSLRLSCAASGFTFSSYAMTWIRQAPGKGLEWVSGIVGGGGTSYYADSVRGRFTISRDNSKNTLYLQMNSLRAEDTAVYYCVKDWNTTMITERGQGTLVTVSS
notes: as for B1
Turning to B4, the binding result was “binds”.

B5: SEQ ID NO 20 (antibody, V domains shown)
VH: EVQLLESGGGLAQPGGSLRLSCAASGFTFSSYAMNWIRQAPGKGLEWVSGISGSGGSTYYADSVKGRFTISRDNSKNTVYLQMNSLRAEDTAVYYCVKDWNTTMITERGQGTLVTVSS
notes: as for B1
For the molecule B5, the binding result is on record as “binds”.

B6: SEQ ID NO 41 (antibody, V domains shown)
VH: EVQLLESGGGVVQPGRSLRLSCAASGFTFSNYAMNWVRQAPGKGLEWVSGIIGSGGSTYYADSVKGRFTISRDNSKNTLYLQMNSLRAEDTAVYYCVKDWNTTMITERGQGTLVTVSS
notes: as for B1
With B6, the binding result is on record as “binds”.

B7: SEQ ID NO 45 (antibody, V domains shown)
VH: EVQLLESGGGVVQPGRSLRLSCAASGFTFSSYAMNWVRQAPGKGLEWVSGIIGSGGSTYYADSVKGRFTISRDNSKNTLYLQMNSLRAEDTAVYYCVKDWNTTMITERGQGTLVTVSS
notes: as for B1
B7: the binding result is reported as “binds”.

B8: SEQ ID NO 31 (antibody, V domains shown)
VH: EVQLLESGGGLVQPGGSLRLSCAASGFTFSSYAMNWVRQAPGKGLEWVSGITGSGDSTYYAASVKGRFSISRDNSQNTLDLQMNSLRAEDTAVYYCVKDWNTTMITERGQGTLVTVSS
notes: as for B1
With B8, the binding result was “binds”.

B9: SEQ ID NO 35 (antibody, V domains shown)
VH: EVQLLESGGGLVQPGGSLRLSCAASGFTFSSYAMSWVRQAPGKGLEWVSGITGSGGSTYYADSVKGRFSISRDNSKNTLDLQMNSLRAEDTAVYYCVKDWNTTMITERGQGTLVTVSS
notes: as for B1
As for B9, the binding result is recorded as “binds”.

B10: SEQ ID NO 30 (antibody, V domains shown)
VH: EVQLLESGGGLVQPGGSLRLSCAASGFTFSSYAMNWVRQAPGKGLEWVSGIIGSGGSTYYADSVKGRFTISRDNSKNTVYLQMNSLRAEDTAVYYCVKDWNTTMITERGQGTLVTVSS
notes: as for B1
With B10, the binding result is listed as “binds”.

B11: SEQ ID NO 34 (antibody, V domains shown)
VH: EVQLLESGGGLVQPGGSLRLSCAASGFTFSRYAMNWIRQAPGKGLEWVSGIVGSGGNTYYADSVKGRFSISRDNSKNTLYLQMNSLRAEDTAVYYCVKDWNTTMITERGQGTLVTVSS
notes: as for B1
As for B11, the binding result was “binds”.

B12: SEQ ID NO 36 (antibody, V domains shown)
VH: EVQLLESGGGLVQPGGSLRLSCAASGFTFSNYAMNWVRQAPGNGLEWVSGLTGSGGSTYYADSVKGRFTISRDNSKNTVYLQMNSLRAEDTAVYYCVKDWNTTMITERGQGTLVTVSS
notes: as for B1
B12: the binding result is recorded as “binds”.

B13: SEQ ID NO 40 (antibody, V domains shown)
VH: EVQLLESGGGLVQPGGSLRLSCAASGFTFSSYAMSWVRQAPGKGLEWVSGIIGSGGSTYYADSVKGRFTISRDNSKNTLYLQMNSLRVEDTAVYYCVKDWNTTMITERGQGTLVTVSS
notes: as for B1
For the molecule B13, the binding result is recorded as “binds”.

B14: SEQ ID NO 50 (antibody, V domains shown)
VH: EVQLLESGGGLVQPGGSLRLSCAASGFTFSSYAMSWVRQAPGKGLEWVSGIIGSGGTTYYADSVKGRFTISRDNSKNTLNLQMNSLRAEDTAIYYCVKDWNTTMITERGQGTLVTVSS
notes: as for B1
Consider B14, for which the binding result is on record as “binds”.

B15: SEQ ID NO 43 (antibody, V domains shown)
VH: EVQLLESGGGLVQPGGSLTLSCAASGFTFSNYAMNWVRQAPGKGLEWVSGIIGSGATTYYADSVKGRFTISRDNSKNTLNLQMNSLRAEDTAIYYCVKDWNTTMITERGQGTLVTVSS
notes: as for B1
For the molecule B15, the binding result is “binds”.

B16: SEQ ID NO 22 (antibody, V domains shown)
VH: EVQLLESGGGLVQPGGSLRLSCAASGFTFSSYAMTWVRQAPGKGLEWVSGITENGGSTYYADSVKGRFTISRDNSKNTLDLQMNSLRAEDTAVYYCVKDWNTTMITERGQGTLVTVSS
notes: as for B1
For the molecule B16, the binding result is recorded as “binds”.

B17: SEQ ID NO 39 (antibody, V domains shown)
VH: EVQLLESGGGLVQPGGSLRLSCAASGFTFSNYAMSWVRQAPGKGLEWVSGIIGSGGSTYYADSVKGRFSISRDNSKNTLYLQMNSLRAEDTAVYYCVKDWNTTMITERGQGTLVTVSS
notes: as for B1
Consider B17, for which the binding result was “binds”.

B18: SEQ ID NO 37 (antibody, V domains shown)
VH: EVQLLESGGGLVQPGGSLRLSCAASGFTFTNYAMNWVRQAPGKGLEWVSGIIGSGGSTYYADSVKGRFTISRDNSKNTLYLQMNSLRAEDTAVYYCVKDWNTTMITERGQGTLVTVSS
notes: as for B1
On to B18, for which the binding result is reported as “binds”.

B19: SEQ ID NO 47 (antibody, V domains shown)
VH: EVQLLESGGGLVQPGESLRLSCAASGFTFSNYAMNWVRQAPGKGLEWVSGIVGGGGTSYYADSVRGRFTISRDNSKNTLYLQMNSLRAEDTAVYYCVKDWNTTMITERGQGTLVTVSS
notes: as for B1
For the molecule B19, the binding result is “binds”.

B20: SEQ ID NO 42 (antibody, V domains shown)
VH: EVQLLESGGGLVQPGGSLRLSCAASGFTFSNYAMNWVRQAPGKGLEWVSGIIGSGGSTYYADSVKGRFTISRDNSKNTLYLQMNSLRAEDTAVYYCVKDWNTTMITERGQGTLVTVSS
notes: as for B1
B20: the binding result is “binds”.

B21: SEQ ID NO 24 (antibody, V domains shown)
VH: EVQLLESGGGLVQPGGSLRLSCAASGFTFSSYAMSWVRQAPGKGLEWVSGIIGSGGSTYYADSVKGRFSISRDNSKNTLDLQMNSLRAEDTAVYYCVKDWNTTMITERGQGTLVTVSS
notes: as for B1
Consider B21, for which the binding result is reported as “binds”.

B22: SEQ ID NO 28 (antibody, V domains shown)
VH: EVQLLESGGGLVQPGGSLRLSCAASGFTFSSYAMNWVRQAPGKGLEWVSGITGSGGSTYYADSVKGRFSISRDNSKNTLDLQMNSLRAEDTAVYYCVKDWNTTMITERGQGTLVTVSS
notes: as for B1
For the molecule B22, the binding result is on record as “binds”.

B23: SEQ ID NO 32 (antibody, V domains shown)
VH: EVQLLESGGGLVQPGGSLRLSCAASGFTFSSYAMSWVRQAPGKGLEWVSGLTGSGDSTYYADSVKGRFTISRDNDKNTVYLQMNSLRAEDTAVYYCVKDWNTTMITERGQGTLVTVSS
notes: as for B1
For the molecule B23, the binding result is “binds”.

B24: SEQ ID NO 44 (antibody, V domains shown)
VH: EVQLLESGGGLVQPGGSLRLSCAASGFTFSNYAMSWVRQAPGKGLEWVSGIIGSGGSTYYADSVKGRFTISRDNSKNTLYLQMNSLRAEDTAVYYCVKDWNTTMITERGQGTLVTVSS
notes: as for B1
Turning to B24, the binding result was “binds”.

B25: SEQ ID NO 33 (antibody, V domains shown)
VH: EVQLLESGGGLVQPGGSLRLSCAASGFTFSNYAMTWIRQAPGKGLEWVSGITGDGGSTFYADSVKGRFSISRDNSKNTLDLQMNSLRAEDTAVYYCVKDWNTTMITERGQGTLVTVSS
notes: as for B1
Turning to B25, the binding result is “binds”.

B26: SEQ ID NO 38 (antibody, V domains shown)
VH: EVQLLESGGGVVQPGRSLRLSCAASGFTFSSYAMSWVRQAPGKGLEWVSGIIGSGGSTYYADSVKGRFTISRDNSKNTLYLQMNSLRAEDTAVYYCVKDWNTTMITERGQGTLVTVSS
notes: as for B1
Take B26: the binding result was “binds”.

B27: SEQ ID NO 21 (antibody, V domains shown)
VH: EVQLLESGGGLVQPGRSLRLSCAASGFTFTNYAMNWVRQAPGKGLEWVSGISGGGGSTYYADSVKGRFTISRDNSKNTLYLQMNSLRAEDTAVYYCVKDWNTTMITERGQGTLVTVSS
notes: as for B1
Regarding B27, the binding result was “binds”.

B28: SEQ ID NO 27 (antibody, V domains shown)
VH: EVQLLESGGGLVQPGGSLRLSCAASGFTFSSYAMNWVRQAPGKGLEWVSGLTGNGDSTYYADSVKGRFTISRDNSKNTVYLQMNSLRAEDTAVYYCVKDWNTTMITERGQGTLVTVSS
notes: as for B1
On to B28, for which the binding result is “binds”.

B29: SEQ ID NO 23 (antibody, V domains shown)
VH: EVQLLESGGGLVQPGGSLRLSCAASGFTFSSYAMSWVRQAPGKGLEWVSGITGDGGSTFYADSVKGRFTISRDNSKNTLYLQMNSLRAEDTAVYYCVKDWNTTMITERGQGTLVTVSS
notes: as for B1
Take B29: the binding result was “binds”.
